Here are results for 9 molecules from EP4778941A1 (Jiangsu Hengrui Pharmaceuticals Co., Ltd., dated 2025).

First the molecules themselves.
B1: Anti-HER3/MET bispecific antibody P8-A (bispecific antibody, human IgG1, kappa)
heavy 1: not shown
light 1: NFMLTQPHSVSESPGKTVTISCTRSSGSIAFDYVQWYQQRPGSAPTTVIYEDNQRPSGVPDRFSASIDSSSNSASLTISALKTEDEADYYCQSYDNSNSWVFGGGTKLTVLGGGGSGIPPKIECLPIDISIDEGKVLTVASAFTGEPTPEVTWSTGGRKIHSQEQGRFHIENTDDSTTLTIKDVQKQDGGLYTLTLRNEFGSDSATVNIHIRSI
heavy 2: QVQLVQSGGGLVQPGRSLRLSCAASGFTFDDYAMHWVRQAPGKGLEWVSGISWNSGSIGYADSVKGRFTISRDNAKNSLYLQMNSLRAEDTALYYCAKEGLPGLDYWGQGTLVTVSSASTKGPSVFPLAPSSKSTSGGTAALGCLVKDYFPEPVTVSWNSGALTSGVHTFPAVLQSSGLYSLSSVVTVPSSSLGTQTYICNVNHKPSNTKVDKKVEPKSCDKTHTCPPCPAPELLGGPSVFLFPPKPKDTLMISRTPEVTCVVVDVSHEDPEVKFNWYVDGVEVHNAKTKPREEQYNSTYRVVSVLTVLHQDWLNGKEYKCKVSNKALPAPIEKTISKAKGQPREPQVCTLPPSREEMTKNQVSLSCAVKGFYPSDIAVEWESNGQPENNYKTTPPVLDSDGSFFLVSKLTVDKSRWQQGNVFSCSVMHEALHNHYTQKSLSLSPGK
light 2: DIQMTQSPSSLSASIGDRATITCRASQHVGTYLNWYQQKPGKTPKLLISGAANLQSGVPSRFSGSGSGTDFTLTISSLQPEDFATYYCQQSYNTPPFSFGQGTKVEIKRTVAAPSVFIFPPSDEQLKSGTASVVCLLNNFYPREAKVQWKVDNALQSGNSQESVTEQDSKDSTYSLSSTLTLSKADYEKHKVYACEVTHQGLSSPVTKSFNRGEC
B2: Antibody A13 N30Q (antibody, human IgG1, kappa, V domains shown)
VH: QVQLVQSGAEVKKPGASVKVSCEASGYTFTSYGFSWVRQAPGQGLEWMGWISASNGNTYYAQKLQGRVTMTTDTSTSSAYMELRSLRSDDTAVYYCARVYADYADYWGQGTLVTVSS
VL: DIQMTQSPSSVSASVGDRVTITCRASQGIQTWLAWYQQKPGKAPKLLIYAASSLKSGVPSRFSGSGSGADFTLTISSLQPEDFATYYCQQANSFPLTFGGGTKVEIKR
notes: Differs from antibody A13 only by N to Q at position 30 of VL
B3: Antibody A13 T31V (antibody, human IgG1, kappa, V domains shown)
VH: QVQLVQSGAEVKKPGASVKVSCEASGYTFTSYGFSWVRQAPGQGLEWMGWISASNGNTYYAQKLQGRVTMTTDTSTSSAYMELRSLRSDDTAVYYCARVYADYADYWGQGTLVTVSS
VL: DIQMTQSPSSVSASVGDRVTITCRASQGINVWLAWYQQKPGKAPKLLIYAASSLKSGVPSRFSGSGSGADFTLTISSLQPEDFATYYCQQANSFPLTFGGGTKVEIKR
notes: Differs from antibody A13 only by T to V at position 31 of VL
B4: Antibody A13 N30T (antibody, human IgG1, kappa, V domains shown)
VH: QVQLVQSGAEVKKPGASVKVSCEASGYTFTSYGFSWVRQAPGQGLEWMGWISASNGNTYYAQKLQGRVTMTTDTSTSSAYMELRSLRSDDTAVYYCARVYADYADYWGQGTLVTVSS
VL: DIQMTQSPSSVSASVGDRVTITCRASQGITTWLAWYQQKPGKAPKLLIYAASSLKSGVPSRFSGSGSGADFTLTISSLQPEDFATYYCQQANSFPLTFGGGTKVEIKR
notes: Differs from antibody A13 only by N to T at position 30 of VL
B5: Antibody A13 N30S (antibody, human IgG1, kappa, V domains shown)
VH: QVQLVQSGAEVKKPGASVKVSCEASGYTFTSYGFSWVRQAPGQGLEWMGWISASNGNTYYAQKLQGRVTMTTDTSTSSAYMELRSLRSDDTAVYYCARVYADYADYWGQGTLVTVSS
VL: DIQMTQSPSSVSASVGDRVTITCRASQGISTWLAWYQQKPGKAPKLLIYAASSLKSGVPSRFSGSGSGADFTLTISSLQPEDFATYYCQQANSFPLTFGGGTKVEIKR
notes: Differs from antibody A13 only by N to S at position 30 of VL
B6: Antibody A N93Q (antibody, human IgG1, kappa, V domains shown)
VH: QVQLVQSGGGLVQPGRSLRLSCAASGFTFDDYAMHWVRQAPGKGLEWVSGISWNSGSIGYADSVKGRFTISRDNAKNSLYLQMNSLRAEDTALYYCAKEGLPGLDYWGQGTLVTVSS
VL: DIQMTQSPSSLSASIGDRATITCRASQHVGTYLNWYQQKPGKTPKLLISGAANLQSGVPSRFSGSGSGTDFTLTISSLQPEDFATYYCQQSYQTPPFSFGQGTKVEIKR
notes: Differs from antibody A only by N to Q at position 93 of VL
B7: Antibody A T94V (antibody, human IgG1, kappa, V domains shown)
VH: QVQLVQSGGGLVQPGRSLRLSCAASGFTFDDYAMHWVRQAPGKGLEWVSGISWNSGSIGYADSVKGRFTISRDNAKNSLYLQMNSLRAEDTALYYCAKEGLPGLDYWGQGTLVTVSS
VL: DIQMTQSPSSLSASIGDRATITCRASQHVGTYLNWYQQKPGKTPKLLISGAANLQSGVPSRFSGSGSGTDFTLTISSLQPEDFATYYCQQSYNVPPFSFGQGTKVEIKR
notes: Differs from antibody A only by T to V at position 94 of VL
B8: Antibody A N93T (antibody, human IgG1, kappa, V domains shown)
VH: QVQLVQSGGGLVQPGRSLRLSCAASGFTFDDYAMHWVRQAPGKGLEWVSGISWNSGSIGYADSVKGRFTISRDNAKNSLYLQMNSLRAEDTALYYCAKEGLPGLDYWGQGTLVTVSS
VL: DIQMTQSPSSLSASIGDRATITCRASQHVGTYLNWYQQKPGKTPKLLISGAANLQSGVPSRFSGSGSGTDFTLTISSLQPEDFATYYCQQSYTTPPFSFGQGTKVEIKR
notes: Differs from antibody A only by N to T at position 93 of VL
B9: Antibody A N93S (antibody, human IgG1, kappa, V domains shown)
VH: QVQLVQSGGGLVQPGRSLRLSCAASGFTFDDYAMHWVRQAPGKGLEWVSGISWNSGSIGYADSVKGRFTISRDNAKNSLYLQMNSLRAEDTALYYCAKEGLPGLDYWGQGTLVTVSS
VL: DIQMTQSPSSLSASIGDRATITCRASQHVGTYLNWYQQKPGKTPKLLISGAANLQSGVPSRFSGSGSGTDFTLTISSLQPEDFATYYCQQSYSTPPFSFGQGTKVEIKR
notes: Differs from antibody A only by N to S at position 93 of VL

For one assay, the target named is Human HER3 and MET proteins together on HER3/MET double-positive cells (human, UniProt P21860 20-1342; P08581 25-1390). Put plainly: cell-based or functional assay.
Consider B1, for which the “Minimum cell viability (%)” value was 12.1%.

The target of another assay is T1, His-tagged human MET antigen (human, UniProt P08581 25-932).
T1 construct: Soluble antigen used as analyte in SPR; not shown: His tag
T1 sequence (P08581 25-932 limits assumed): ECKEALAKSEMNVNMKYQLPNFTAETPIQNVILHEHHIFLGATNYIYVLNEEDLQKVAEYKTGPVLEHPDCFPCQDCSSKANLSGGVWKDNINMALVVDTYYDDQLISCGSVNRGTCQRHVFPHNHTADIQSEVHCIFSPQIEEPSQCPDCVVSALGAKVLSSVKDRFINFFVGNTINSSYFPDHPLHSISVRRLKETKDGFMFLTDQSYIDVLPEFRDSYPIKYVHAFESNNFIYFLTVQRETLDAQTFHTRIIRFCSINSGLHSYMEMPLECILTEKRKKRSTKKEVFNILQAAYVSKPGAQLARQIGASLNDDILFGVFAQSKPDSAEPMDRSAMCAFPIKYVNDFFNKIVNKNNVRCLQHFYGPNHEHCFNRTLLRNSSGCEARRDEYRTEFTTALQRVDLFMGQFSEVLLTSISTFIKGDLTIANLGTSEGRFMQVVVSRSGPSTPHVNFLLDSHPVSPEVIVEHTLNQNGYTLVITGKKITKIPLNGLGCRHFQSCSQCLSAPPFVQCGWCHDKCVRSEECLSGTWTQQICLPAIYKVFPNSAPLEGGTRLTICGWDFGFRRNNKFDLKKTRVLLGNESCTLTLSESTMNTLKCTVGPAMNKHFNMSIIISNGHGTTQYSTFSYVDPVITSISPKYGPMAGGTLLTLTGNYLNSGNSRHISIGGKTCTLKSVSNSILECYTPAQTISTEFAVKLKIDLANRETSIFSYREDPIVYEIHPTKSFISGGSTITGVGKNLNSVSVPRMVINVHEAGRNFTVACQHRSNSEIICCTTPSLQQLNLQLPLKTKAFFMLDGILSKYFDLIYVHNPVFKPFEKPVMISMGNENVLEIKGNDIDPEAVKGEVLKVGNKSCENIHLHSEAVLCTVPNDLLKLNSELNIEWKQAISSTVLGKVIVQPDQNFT
The assay is described as follows: SPR, Biacore 8K; antibody captured, His-tagged human MET antigen 6.25-400 nM as analyte; 1:1 Langmuir. In general terms: SPR reads the build-up and loss of mass on a sensor chip optically.
The term Kd denotes the free concentration of one partner at which half of the binding sites on the other are occupied at equilibrium, for simple one-to-one binding. A higher Kd goes with a looser complex. In general, koff refers to the rate constant with which the complex falls apart. A lower koff goes with slow dissociation. Broadly, the kon is a measure of how fast the partners come together. Low values mean slower complex formation, high ones faster complex formation. Take B2: binding was put at a Kd of 17.6 nM, the koff worked out at 0.00146 s⁻¹ and the kon was 83000 M⁻¹ s⁻¹.
Take B3: the Kd is 93.1 nM, the koff worked out at 0.00521 s⁻¹ and the kon is 56000 M⁻¹ s⁻¹.
For B4, in that order: 17 nM, 0.0018 s⁻¹ and 106000 M⁻¹ s⁻¹.
For B5, in that order: 7.69 nM, 0.000776 s⁻¹ and 101000 M⁻¹ s⁻¹.

The target of another assay is T2, His-tagged human HER3 antigen (human, UniProt P21860 20-643).
T2 construct: Soluble antigen used as analyte in SPR; not shown: His tag
The assay is described as follows: SPR, Biacore 8K; antibody captured, His-tagged human HER3 antigen 6.25-400 nM as analyte; 1:1 Langmuir.
As to B6, the Kd was 51.4 nM, the dissociation rate constant (koff) came out at 0.0295 s⁻¹ and the on-rate constant (kon) came out at 573000 M⁻¹ s⁻¹.
For B7, in that order: 15 nM, 0.0108 s⁻¹ and 717000 M⁻¹ s⁻¹.
The matching figures for B8: 97.9 nM, 0.0329 s⁻¹ and 336000 M⁻¹ s⁻¹.
The matching figures for B9: 32.6 nM, 0.0215 s⁻¹ and 659000 M⁻¹ s⁻¹.
